Measurements reported in patent US20220242936A1 (CHANGCHUN GENESCIENCE PHARMACEUTICAL, published 2022).
Positions count from the first letter of the chain named. Where no end group is shown, it is not given here.

Assays:
[1] = target: T1, biotinylated Aβ1-42 polypeptide (human, biotinylated (site not stated)); experiment: ELISA, hybridoma supernatant on biotinylated peptide captured by streptavidin
T1 construct: also called Full length Aβ1-42
Method: (§1) Detection: After stopping the reaction, the microtiter plate was immediately placed into a microplate reader, the OD value was measured at 450 nm, and the original data was stored.
(§2) Data processing: The raw data were input into the software SoftMax Pro 6.2.1 for data processing.

[2] = target: T2, biotinylated Aβ1-16 polypeptide (also: biotinylated (site not given here)); experiment: as above
T2 construct: also called Aβ1-16 (N-terminal peptide fragment)
T2 peptide: DAEFRHDSGYEVHHQK
Method: as §1, §2

[3] = target: T3, biotinylated Aβ14-29 polypeptide (biotinylated (site not stated)); experiment: as above
T3 construct: also called Aβ14-29 (middle peptide fragment)
Method: as §1, §2

Aβ1-42 polypeptide [4] = target: Aβ1-42 polypeptide (human); experiment: cell-based or functional assay
[5] = target: T2, biotinylated Aβ1-16 polypeptide; experiment: ELISA, biotinylated peptide on streptavidin plate
Method: as §1, §2

[6] = target: T3, biotinylated Aβ14-29 polypeptide; experiment: ELISA, biotinylated peptide on streptavidin plate
Method: as §1, §2

Aβ1-42 polypeptide [7] = target: T4, Aβ1-42 polypeptide (human); experiment: SPR, Biacore T200, antibody captured on Protein A chip, human Aβ antigen as analyte
T4 construct: Synthetic peptide; also called Aβ1-42 monomer; Aβ monomer
Method: Biacore-T200 detection was performed, ProteinA chip was used to capture candidate antibodies or positive antibodies, different concentrations of human Aβ antigen were used to flow through the chip, and the fitting analysis was performed based on the collected data. […] The detection conditions were: capture time: 30 s; antigen binding time: 120 s; dissociation time: 900 s; flow rate: 30 μl/min. And the regeneration conditions were: 20 mM NaOH solution, flow rate: 30 μl/min.

Aβ1-42 polypeptide [8] = target: T4, Aβ1-42 polypeptide; experiment: ELISA EC50 on Aβ42 monomer, 2 ml transient transfection; table note: '-' means no combination; expression 3.68 mg/L
Aβ1-42 polypeptide [9] = target: T4, Aβ1-42 polypeptide; experiment: ELISA EC50 on Aβ42 monomer, 2 ml transient transfection; table note: '-' means no combination; expression 61 mg/L
Aβ1-42 polypeptide [10] = target: T4, Aβ1-42 polypeptide; experiment: ELISA EC50 on Aβ42 monomer, 2 ml transient transfection; table note: '-' means no combination; expression 3.96 mg/L
Aβ1-42 polypeptide [11] = target: T4, Aβ1-42 polypeptide; experiment: ELISA EC50 on Aβ42 monomer, 2 ml transient transfection; table note: '-' means no combination; expression 68.2 mg/L
Aβ1-42 polypeptide [12] = target: T4, Aβ1-42 polypeptide; experiment: ELISA EC50 on Aβ42 monomer, 2 ml transient transfection; table note: '-' means no combination; expression 3.12 mg/L
Aβ1-42 polypeptide [13] = target: T4, Aβ1-42 polypeptide; experiment: ELISA EC50 on Aβ42 monomer, 2 ml transient transfection; table note: '-' means no combination; expression 5.42 mg/L
Aβ1-42 polypeptide [14] = target: T4, Aβ1-42 polypeptide; experiment: ELISA EC50 on Aβ42 monomer, 2 ml transient transfection; table note: '-' means no combination; expression 60 mg/L
Aβ1-42 polypeptide [15] = target: T4, Aβ1-42 polypeptide; experiment: ELISA EC50 on Aβ42 monomer, 2 ml transient transfection; table note: '-' means no combination; expression 32.1 mg/L
Aβ1-42 polypeptide [16] = target: T4, Aβ1-42 polypeptide; experiment: ELISA EC50 on Aβ42 monomer, 2 ml transient transfection; table note: '-' means no combination; expression 3.88 mg/L

T4 sequence (peptide, as listed by the source): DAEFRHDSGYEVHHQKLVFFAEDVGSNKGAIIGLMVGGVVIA
T1 sequence (peptide, as listed by the source): as above

B1: 066-7.17.2 (antibody, V domains shown)
VH: EVQLVESGGGLVKPGGSLKLSCAASGFTFSSYGMHWVRQAPEKGLEWVAMIWYDGTKKYYSDSVKGRFTISRDNAKNTLFLQMTSLRSEDTAMYYCARDRGIGTRHGPYFMDVWGQGTSVTVSS
VL: DIQMNQSPSSLSASLGDTITITCHARHNVRSYLNWYQQKPGNIPKLLIYAASSQQRGVPSRFSGSGSGTGFTLTISSLQPEDIATYYCLQSFGTPLTFGGGTKLEIK
- OD value at 450 nm [1]: 1.08 OD
- OD value at 450 nm [2]: 0.92 OD
- OD value at 450 nm [3]: 0.0612 OD

B2: 066-4.26.14 (antibody, V domains shown)
VH: EVKLVESGGGLVKPGGSLKLSCAASGFTFRSYAMSWVRQTPEKRLEWVASISTTSNTYYPDSVKGRFTTSRDNARNIVYLQMSSLRSDDTAMYYCGRGVITNQAWFAYWGQGTLVTVSA
VL: DIVLTQSPATLSVTPGDSVSLSCRASQSISNNLHWYQQKSHESPRLLIKYASQSISGIPSRFSGSGSGTDFTLSVNNVGTEDFGMYFCQQSNSWPLTFGAGTKLELK
notes: Murine hybridoma antibody
- relative fluorescence intensity (ThT, Aβ polymerization; PBS group = 1.0) (Aβ1-42 polypeptide [4]): 0.46 relative to PBS group
- relative fluorescence intensity (ThT, Aβ polymerization; hIgG = 1.00) (Aβ1-42 polypeptide [4]): 0.7 relative to hIgG
- relative value of LDH release (SHSY5Y cells with Aβ; Vehicle group = 1.0) (Aβ1-42 polypeptide [4]): 1.2 relative to Vehicle group
- relative value of LDH release (SHSY5Y cells with Aβ; hIgG = 1.00) (Aβ1-42 polypeptide [4]): 1.2 relative to hIgG
- binding result [5]: no binding
- binding result [6]: no binding
- OD value at 450 nm [1]: 1.93 OD
- OD value at 450 nm [2]: 0.0602 OD
- OD value at 450 nm [3]: 0.0674 OD

B3: 066-4.26.14 mouse-human chimeric antibody (antibody, human IgG1, V domains shown)
VH: B2 VH
VL: DIVLTQSPATLSVTPGDSVSLSCRASQSISNNLHWYQQKSHESPRLLIKYASQSISGIPSRFSGSGSGTDFTLSVNNVGTEDFGMYFCQQSNSWPLTFGAGTKLELKR
- relative fluorescence intensity (ThT, Aβ polymerization; hIgG = 1.00) (Aβ1-42 polypeptide [4]): 0.71 relative to hIgG
- relative value of LDH release (SHSY5Y cells with Aβ; hIgG = 1.00) (Aβ1-42 polypeptide [4]): 1.32 relative to hIgG
- Kd (Aβ1-42 polypeptide [7]): 12.6 nM
- koff (Aβ1-42 polypeptide [7]): 0.000333 s⁻¹
- kon (Aβ1-42 polypeptide [7]): 26500 M⁻¹ s⁻¹

B4: 066-4.26.14H3L5 (antibody, human IgG1, kappa, V domains shown)
VH: EVQLVQSGAEVKKPGESLKISCKGSGYSFRSYAMSWVRQMPGKGLEWVASISTTSNTYYPDSVKGRVTTSRDKSISTAYLQWSSLKASDTAMYYCGRGVITNQAWFAYWGQGTLVTVSS
VL: EIVLTQSPDFQSVTPKEKVTITCRASQSISNNLHWYQQKPDQSPKLLIKYASQSISGVPSRFSGSGSGTDFTLTINSLEAEDAATYYCQQSNSWPLTFGQGTKVEIKR
notes: Humanized full-length antibody; human IgG1 heavy constant and human kappa light constant (vectors pGS003-hIgG1CH, pGS003-hIgKCL)
- binding result (Aβ1-42 polypeptide [8]): no binding

B5: 066-4.26.14H1L2 (antibody, human IgG1, V domains shown)
VH: EVQLVESGGGLVKPGGSLRLSCAASGFTFRSYAMSWVRQAPGKGLEWVASISTTSNTYYPDSVKGRFTTSRDNAKNSLYLQMNSLRAEDTAVYYCGRGVITNQAWFAYWGQGTLVTVSS
VL: DIVLTQSPATLSVSPGERATLSCRASQSISNNLHWYQQKPGQAPRLLIKYASQSISGIPARFSGSGSGTDFTLTISSLQSEDFAVYFCQQSNSWPLTFGGGTKVEIKR
notes: as for B4
- binding result (Aβ1-42 polypeptide [9]): no binding

B6: 066-4.26.14H4L4 (antibody, human IgG1, V domains shown)
VH: B5 VH with K13Q, L78V, N83S, A87D, V92M, T113I
VL: B5 VL with D1E, A9G, V13L, A60D, S77R, Q79E, S80P, F87Y
notes: as for B4
- binding result (Aβ1-42 polypeptide [10]): no binding

B7: 066-4.26.14H1L3 (antibody, human IgG1, V domains shown)
VH: B5 VH
VL: B4 VL with E1D, T22S, V58I, T85A, Y87F, Q100P
notes: as for B4
- binding result (Aβ1-42 polypeptide [11]): no binding

B8: 066-4.26.14H5L4 (antibody, human IgG1, V domains shown)
VH: B5 VH with K13Q, A23V, A74S, S77T, L78V, N83S
VL: B5 VL with D1E, A9G, V13L, A60D, S77R, Q79E, S80P, F87Y
notes: as for B4
- binding result (Aβ1-42 polypeptide [12]): no binding

B9: 066-4.26.14H3L1 (antibody, human IgG1, kappa, V domains shown)
VH: B4 VH
VL: B5 VL with A19V, P40S, A60S, K103Q
notes: as for B4
- binding result (Aβ1-42 polypeptide [13]): no binding

B10: 066-4.26.14H5L2 (antibody, human IgG1, V domains shown)
VH: B5 VH with K13Q, A23V, A74S, S77T, L78V, N83S
VL: B5 VL
notes: as for B4
- relative fluorescence intensity (ThT, Aβ polymerization; hIgG = 1.00) (Aβ1-42 polypeptide [4]): 0.67 relative to hIgG
- relative value of LDH release (SHSY5Y cells with Aβ; hIgG = 1.00) (Aβ1-42 polypeptide [4]): 1.26 relative to hIgG
- Kd (Aβ1-42 polypeptide [7]): 20.8 nM
- koff (Aβ1-42 polypeptide [7]): 0.000278 s⁻¹
- kon (Aβ1-42 polypeptide [7]): 13400 M⁻¹ s⁻¹

B11: 066-4.26.14H5L1 (antibody, human IgG1, V domains shown)
VH: B5 VH with K13Q, A23V, A74S, S77T, L78V, N83S
VL: B5 VL with A19V, P40S, A60S, K103Q
notes: as for B4
- relative fluorescence intensity (ThT, Aβ polymerization; hIgG = 1.00) (Aβ1-42 polypeptide [4]): 0.68 relative to hIgG
- relative value of LDH release (SHSY5Y cells with Aβ; hIgG = 1.00) (Aβ1-42 polypeptide [4]): 1.37 relative to hIgG
- Kd (Aβ1-42 polypeptide [7]): 24.8 nM
- koff (Aβ1-42 polypeptide [7]): 0.000469 s⁻¹
- kon (Aβ1-42 polypeptide [7]): 18900 M⁻¹ s⁻¹

B12: 066-4.26.14H5L3 (antibody, human IgG1, V domains shown)
VH: B5 VH with K13Q, A23V, A74S, S77T, L78V, N83S
VL: B4 VL with E1D, T22S, V58I, T85A, Y87F, Q100P
notes: as for B4
- relative fluorescence intensity (ThT, Aβ polymerization; hIgG = 1.00) (Aβ1-42 polypeptide [4]): 0.78 relative to hIgG
- relative value of LDH release (SHSY5Y cells with Aβ; hIgG = 1.00) (Aβ1-42 polypeptide [4]): 1.41 relative to hIgG
- Kd (Aβ1-42 polypeptide [7]): 32.5 nM
- koff (Aβ1-42 polypeptide [7]): 0.00046 s⁻¹
- kon (Aβ1-42 polypeptide [7]): 14200 M⁻¹ s⁻¹

B13: 066-4.26.14H4L2 (antibody, human IgG1, V domains shown)
VH: B5 VH with K13Q, L78V, N83S, A87D, V92M, T113I
VL: B5 VL
notes: as for B4
- relative fluorescence intensity (ThT, Aβ polymerization; hIgG = 1.00) (Aβ1-42 polypeptide [4]): 0.7 relative to hIgG
- relative value of LDH release (SHSY5Y cells with Aβ; hIgG = 1.00) (Aβ1-42 polypeptide [4]): 1.3 relative to hIgG
- Kd (Aβ1-42 polypeptide [7]): 36.3 nM
- koff (Aβ1-42 polypeptide [7]): 0.000463 s⁻¹
- kon (Aβ1-42 polypeptide [7]): 12800 M⁻¹ s⁻¹

B14: 066-4.26.14H1L1 (antibody, human IgG1, V domains shown)
VH: B5 VH
VL: B5 VL with A19V, P40S, A60S, K103Q
notes: as for B4
- binding result (Aβ1-42 polypeptide [14]): no binding

B15: 066-4.26.14H1L4 (antibody, human IgG1, V domains shown)
VH: B5 VH
VL: B5 VL with D1E, A9G, V13L, A60D, S77R, Q79E, S80P, F87Y
notes: as for B4
- binding result (Aβ1-42 polypeptide [15]): no binding

B16: 066-4.26.14H3L4 (antibody, human IgG1, kappa, V domains shown)
VH: B4 VH
VL: B5 VL with D1E, A9G, V13L, A60D, S77R, Q79E, S80P, F87Y
notes: as for B4
- binding result (Aβ1-42 polypeptide [16]): no binding

B17: 066-4.26.14H2L3 (antibody, human IgG1, V domains shown)
VH: B5 VH with A40T, G42E, G44R, L78V, N83S, L114T
VL: B4 VL with E1D, T22S, V58I, T85A, Y87F, Q100P
notes: as for B4
- relative fluorescence intensity (ThT, Aβ polymerization; hIgG = 1.00) (Aβ1-42 polypeptide [4]): 0.67 relative to hIgG
- relative value of LDH release (SHSY5Y cells with Aβ; hIgG = 1.00) (Aβ1-42 polypeptide [4]): 1.42 relative to hIgG
- Kd (Aβ1-42 polypeptide [7]): 25.8 nM
- koff (Aβ1-42 polypeptide [7]): 0.000472 s⁻¹
- kon (Aβ1-42 polypeptide [7]): 18300 M⁻¹ s⁻¹

B18: 066-4.26.14H2L2 (antibody, human IgG1, V domains shown)
VH: B5 VH with A40T, G42E, G44R, L78V, N83S, L114T
VL: B5 VL
notes: as for B4
- relative fluorescence intensity (ThT, Aβ polymerization; hIgG = 1.00) (Aβ1-42 polypeptide [4]): 0.62 relative to hIgG
- relative value of LDH release (SHSY5Y cells with Aβ; hIgG = 1.00) (Aβ1-42 polypeptide [4]): 1.41 relative to hIgG
- Kd (Aβ1-42 polypeptide [7]): 22.5 nM
- koff (Aβ1-42 polypeptide [7]): 0.000433 s⁻¹
- kon (Aβ1-42 polypeptide [7]): 19200 M⁻¹ s⁻¹
